From US20230391872A1 (ANAPTYSBIO, published 2023)

Experiments:
[1] = target: T1, cynomolgus monkey BTLA on cells (stably transfected 293c18 clone 1G5); cynomolgus peripheral blood T and B … (cynomolgus monkey, UniProt A0A2K5W7M7 31-289); assay: flow cytometry on cynomolgus monkey BTLA 293c18 cells, anti-human kappa-PE detection; both lots (APE10840.03 and APE10840.04); cynomolgus BTLA 293c18 cells
T1 construct: whole, on cells; also called cynomolgus monkey BTLA 293c18 cells
T1 sequence: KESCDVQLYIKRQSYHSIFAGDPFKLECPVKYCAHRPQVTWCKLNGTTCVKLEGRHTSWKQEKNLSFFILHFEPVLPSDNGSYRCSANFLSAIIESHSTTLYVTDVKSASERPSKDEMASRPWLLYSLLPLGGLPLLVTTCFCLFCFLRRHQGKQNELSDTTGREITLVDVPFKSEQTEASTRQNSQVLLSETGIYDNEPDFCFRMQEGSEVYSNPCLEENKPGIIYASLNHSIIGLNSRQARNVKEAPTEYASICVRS
Experimental: 293c18 cell clone 1E4 stably expressing human BTLA construct or clone 1G5 stably expressing cynomolgus monkey BTLA were harvested with Accutase solution (Millipore Sigma/Sigma-Aldrich) and washed once with Phosphate-Buffered Saline, 1% BSA. 293c18 cynomolgus monkey BTLA cells were loaded with the lipophilic carbocyanine dye, DiD (2 μM, 1,1′-dioctadecyl-3,3,3′,3′-tetramenthylindodicarbocyanine; ThermoFisher Scientific) by rocking gently for 10 minutes at room temperature. DiD-stained cells were washed in PBS, 1% BSA and equal amounts of human BTLA 293c18 cells and cynomolgus monkey BTLA 293c18-DiD-stained cells were mixed. Cells (2×10⁵ total cells/sample) were incubated with the indicated concentrations of purified 6G3 IgG4 (two production lots, APE10840.03 and APE10840.04 (H Chain SEQ ID NO: 144, L Chain SEQ ID NO: 174)) or human IgG4 isotype control antibody specific for hen egg lysozyme with gentle shaking for 10 minutes at 4° C. in FACS buffer (PBS, 1% BSA, 0.02% sodium azide). […] Cells were washed and resuspended in FACS buffer and analyzed for fluorescence on a BD FACSArray (BD Biosciences). DiD stained cells expressing cynomolgus monkey BTLA (FIG. 3) were analyzed for median fluorescence intensity (MFI) separately from cells expressing human BTLA (FIG. 3). […]

[2] = target: T2, human BTLA on cells (stably transfected 293c18 cells; human peripheral blood T and B cells) (human, UniProt Q7Z6A9 31-289); assay: flow cytometry, DyLight 650-labeled 6G3 IgG4 on human peripheral blood CD20+ B cells
T2 construct: whole, on cells; the cells are named under assay; also called cell surface BTLA; full-length human BTLA
Experimental: PBMCs were washed and incubated at 2×10⁷ cells/ml in FACS buffer (PBS, 1% BSA, 0.02% sodium azide) with Human BD Fc Block (2.5 μg/1×10⁶ cells, BD Biosciences) and LIVE/DEAD® Fixable Yellow Dead Cell Stain (30 μl, ThermoFisher Scientific) for 10 minutes on ice. Cells were washed once in FACS buffer, resuspended in FACS buffer at 1×10⁷ cells/ml and the following phenotyping antibodies added: Alexa Fluor 488-anti-human CD3E clone SK7, Brilliant Violet 421-anti-human CD4 clone OKT4, Brilliant Violet 785-anti-human CD8 clone SK1, and Brilliant Violet 570-anti-human CD20 clone 2H7 (50 μl each; all from BioLegend, Inc.). […] Samples were washed twice in FACS buffer, resuspended in 150 μl/well FACS buffer, and analyzed for fluorescence on a NovoCyte Flow Cytometer (ACEA Biosciences, Inc.). Data were analyzed using NovoExpress Software (ACEA Biosciences, Inc.). Median fluorescence intensities of anti-BTLA or isotype staining on gated CD4⁺ T cells (FIG. 4), CD8⁺ T cells (FIG. 4), or CD20⁺ B cells (FIG. 4) were graphed and curves fit with log(agonist) vs. response (three parameters) least squares fit for EC₅₀ calculation in GraphPad Prism (GraphPad Software, Inc.).

[3] = target: T3, cynomolgus monkey BTLA ECD-his (monomeric cynomolgus monkey BTLA-his) (cynomolgus monkey, UniProt A0A2K5W7M7 31-157); assay: Kinetic Exclusion Assay (KinExA 3000), solution phase, 6G3 IgG4 APE10840.04 at 100 pM, cynomolgus monkey BTLA ECD-his titrated
T3 construct: extracellular domain; also called cynomolgus monkey BTLA extracellular domain
T3 sequence: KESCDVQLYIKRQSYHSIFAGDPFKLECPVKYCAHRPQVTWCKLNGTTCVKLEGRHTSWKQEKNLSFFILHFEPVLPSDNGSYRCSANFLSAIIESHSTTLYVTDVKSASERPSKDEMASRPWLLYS
Experimental: Solution-based affinity measurements of 6G3 IgG4 (APE10840.04 (H Chain SEQ ID NO: 144, L Chain SEQ ID NO: 174)) binding to BTLA were determined on a KinExA 3000 (Sapidyne Instruments). Azlactone beads (ThermoFisher Scientific) were coated with human BTLA ECD-his (30 μg/ml) or cynomolgus monkey BTLA ECD-his (20 μg/ml) in 50 mM Na2CO3 for 2 hours at room temperature and blocked with 10 mg/ml BSA. 6G3 IgG4 APE10840.04 concentration was kept constant at 100 pM for binding in both human and cynomolgus monkey BTLA experiments. Human or cynomolgus monkey BTLA ECD-his was added at 25° C. in 2.5-fold dilutions from 1000 nM to 68 fM. Sample sets were equilibrated at 4° C. for 72 hours and brought to room temperature for 6 hours before capturing free antibody with BTLA-coupled Azlactone beads. […] Maximum and background signals were determined on samples with 6G3 only and buffer only, respectively. Data were analyzed using KinExA Pro Software 3.2.6.

B1: 6G3 IgG4 anti-BTLA antibody (APE10840 / APE12839 / APE13308) (antibody, V domains shown)
VH: QVQLVQSGAEVKKPGSSVKVSCKASGYVFSTSWMNWVRQAPGQGLEWMGRIYPGDADTNYVGKFKGRVTITADKSTTTAYMELSSLRSEDTAVYFCAKSGTFNFGNYRWYFDVWGKGTTVTVSS
VL: AIQLTQSPSSLSASVGDRVTITCRVSENIYSHLAWYQQKPGKAPKLLIYAATNLALGVPSRFSGSGSGTDYTLTISSLQPEDFATYYCQLFWGPPLTFGGGTKVEIKR
notes: Humanized antibody from a mouse hybridoma, tested as human IgG4 (detected with anti-human kappa); Some assays used labelled lots (DyLight 650, AF647, biotin, DyL488); also called 6G3 antibody; APE10840.03
[1]
  EC50: ~2.3 nM
[2]
  EC50: ~0.5 nM
[3]
  Kd: ~1.66 nM
